Source: publication PMC5737657 (Nucleic Acids Research, 2017)

Molecular target: the molecule itself
Assay: crystal structure

B1: VapC26 toxin with N-terminal (His)6 tag (native, co-expressed with VapB26) (natural protein)
chain: MIIDTSALLAYFDAAEPDHAAVSECIDSSADALVVSPYVVAELDYLVATRVGVDAELAVLRELAGGAWELANCGAAEIEQAARIVTKYQDQRIGIADAANVVLADRYRTRTILTLDRRHFSALRPIGGGRFTVIP
binding result: binds
